In patent publication US20100129288A1:

Biological target: neurofascin on purified rat DRG neurons (rat) (UniProt P97685)
Assay: cell-based or functional assay

UniProt P97685, sequence (P97685 25-1240, form in doubt): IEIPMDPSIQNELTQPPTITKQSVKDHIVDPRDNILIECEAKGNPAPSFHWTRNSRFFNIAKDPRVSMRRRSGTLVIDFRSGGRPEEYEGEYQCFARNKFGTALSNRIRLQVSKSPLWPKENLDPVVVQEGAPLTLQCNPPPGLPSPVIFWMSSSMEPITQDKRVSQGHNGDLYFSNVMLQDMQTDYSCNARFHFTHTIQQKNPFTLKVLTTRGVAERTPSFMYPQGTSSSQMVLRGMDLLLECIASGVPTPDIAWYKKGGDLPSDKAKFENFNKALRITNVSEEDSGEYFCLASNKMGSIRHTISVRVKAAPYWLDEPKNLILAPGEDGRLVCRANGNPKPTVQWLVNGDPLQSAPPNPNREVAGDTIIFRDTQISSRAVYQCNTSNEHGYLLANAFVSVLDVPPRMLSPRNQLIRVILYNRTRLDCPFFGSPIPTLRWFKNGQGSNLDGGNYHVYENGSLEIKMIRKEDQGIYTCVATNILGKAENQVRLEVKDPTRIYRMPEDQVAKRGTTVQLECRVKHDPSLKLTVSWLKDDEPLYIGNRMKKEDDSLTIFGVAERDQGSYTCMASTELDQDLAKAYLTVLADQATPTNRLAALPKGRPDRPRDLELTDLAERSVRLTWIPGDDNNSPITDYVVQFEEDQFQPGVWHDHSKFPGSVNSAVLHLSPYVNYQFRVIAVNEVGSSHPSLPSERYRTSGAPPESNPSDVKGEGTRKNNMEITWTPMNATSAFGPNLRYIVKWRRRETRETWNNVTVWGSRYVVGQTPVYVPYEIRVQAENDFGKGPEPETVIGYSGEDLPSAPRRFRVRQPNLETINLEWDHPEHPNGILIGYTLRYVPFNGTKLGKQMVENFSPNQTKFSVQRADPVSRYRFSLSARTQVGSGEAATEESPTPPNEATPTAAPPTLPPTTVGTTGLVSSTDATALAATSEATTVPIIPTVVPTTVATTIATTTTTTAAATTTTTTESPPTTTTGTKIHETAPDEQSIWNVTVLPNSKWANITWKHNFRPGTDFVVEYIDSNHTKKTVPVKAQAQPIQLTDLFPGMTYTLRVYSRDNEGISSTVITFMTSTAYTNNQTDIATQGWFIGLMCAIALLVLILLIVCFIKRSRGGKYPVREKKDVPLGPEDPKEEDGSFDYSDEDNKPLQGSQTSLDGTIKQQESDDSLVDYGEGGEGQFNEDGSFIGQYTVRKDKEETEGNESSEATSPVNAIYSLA

- OLF-Fc clusters co-localized with neurofascin clusters: 96%
B1: OLF-Fc (Fc-fusion protein containing the olfactomedin domain of gliomedin) (Fc fusion, part only; not given: human Fc, part only)
chain, part: NDDTLVGRADEKVNERHSPQTEPMITSIGNPAQVLKVKETFGTWLRESANRSDDRIWVTEHFSGIMVKEFEDLPALLNSSFTLLHLPHYFHGCGHAVYNNSLYYHKGGSNTIVRFEFGKETPQTLKLEDALYFDRKYLFANSKTYFNIAVDEKGLWIIYASSVDGSSILVAQLDERTFSVLRHINTTYPKSKAGNAFIAQGILYVTDTKDTRVTFAFDLLRGKQINANFGLRMSQSVLAMLSYNMRDQHLYSWEDGHLMLYPVHFSSTAPS
